Residue numbers refer to the chain shown, from its start.
B1: TM-29: anti-TMEM106B monoclonal antibody; CDR-H1-3 SEQ ID NO: 20, 60, 103; CDR-L1-3 SEQ ID NO: 143, 168, 207 (antibody, V domains shown)
VH: QVQLRQSGAELVRPGASVKLSCKASGYTFTDYYINWVKQRPGQGLEWIARIYPGSGYTYYNEKFKGKATLTAEGSSNTAYMQLSSLTSEDSAVYFCANHYTNPFAYWGQGTLVTVSA
VL: DIVMTQAAFSNPVTLGTSASISCRSSKSLLHYNGITYLYWYLQKPGQSPQLLIYQMSNLASGVPDRFSSSGSGTDFTLRISRVEAEDVGVYYCAQNLELPYTFGGGTKLEIK
B2: TM-72: anti-TMEM106B monoclonal antibody; VH SEQ ID NO: 477, VL SEQ ID NO: 512 (antibody, V domains shown)
VH: QVQLQQPGAELVKPGTSVKLSCKASGSTFTNYWMHWVMQRPGQGLEWIGNIDPSDSDTHYNQKFKDRAKLTVDKSSSTAYMQLSGLTSEDSAVYYCARSRGGYYDYGEAMDYWGQGTSVTVSS
VL: DIVMTQAAPSVPVTPGESVSISCRSSKSLLHTNGNTYLFWFIQRPGQSPHLLIYRKSNLASGVPDRFSGSGSGTAFTLRISRVEAEDVGVYYCMQHLEYPFTFGSGTKLEIK
modifications: Variable Heavy Chain -- TM-72; Variable Light Chain -- TM-71, TM-72
B3: TM-28: anti-TMEM106B monoclonal antibody; CDR-H1-3 SEQ ID NO: 8, 59, 102; CDR-L1-3 SEQ ID NO: 142, 166, 190 (antibody, V domains shown)
VH: EVQLQQSGPVLVKPGPSVKISCMASVFTFNDYYIHWVKQSHGKSLEWIGLVYPYNGGTNYNQNFKGKATLTVDTSSRTAYMELNSLTSEDSAVYYCARSYFSNPIGYWGQGTLVTVSE
VL: DIVMTQSPSSLSVSVGEKVTVSCKSSQSLLNSGNQKNYLAWYQQKPGQPPKLLIYGASTRESGVPDRFTGSGSGTDFTLTISSVQAEDLAVYYCQNDHSYPLTFGAGTKLELK
B4: TM-30: anti-TMEM106B monoclonal antibody; CDR-H1-3 SEQ ID NO: 21, 61, 104; CDR-L1-3 SEQ ID NO: 144, 160, 208 (antibody, V domains shown)
VH: QVQLQQSGPELVKPGASVKLSCKASDNTFTNYDVNWVRQRPGQGLEWIGWIYPRDGTTIYNEKFKGRATLTVDTSSSTAYMELHSLTSEDSAVFFCARTLPQAMDYWGQGTSVTVSS
VL: DVLMTQSPLSLPVSLGDQVSISCRSSQTIVHRNGNTYLEWYLQKPGQSPKLLIYKVSNRFSGVPDRFSGSGSGTDFTLKISRVEAEDLGVYYCFQGSHLPWTFGGGTKLEIK
B5: TM-63: anti-TMEM106B monoclonal antibody; VH SEQ ID NO: 469, VL SEQ ID NO: 505 (antibody, V domains shown)
VH: QVQLQQPGAELVKFGASVKLSCKASGYTFTSFWMHWVKQRPGQGLEWIGNIDPSDSETHYSQKFKDKATLTVDRSSNTAYIQLSSLTSEDSAVYYCARSSNWDNFDYWGQGTTVTVSS
VL: DIVMTQASPSVSVTPGESVSISCRSSQSLLHVNGNTYLYWFLQRPGRSPRLLIYRMSNLASGVPDRFSGSGSGTAFTLRISRVEAEDVGVYYCMQHLQYPFSFGSGTKLEMK
modifications: Variable Heavy Chain -- TM-63; Variable Light Chain -- TM-63
B6: TM-80: anti-TMEM106B monoclonal antibody; VH SEQ ID NO: 485, VL SEQ ID NO: 520 (antibody, V domains shown)
VH: B5 VH with F14P, S31T, S61N, K63E, I81M, T113A
VL: B5 VL with S8A, S12P, N35H, R47Q, R50Q, A75V, A85T, V90I, S102T, M111I
modifications: Variable Heavy Chain -- TM-80; Variable Light Chain -- TM-80
B7: TM-78: anti-TMEM106B monoclonal antibody; VH SEQ ID NO: 483, VL SEQ ID NO: 518 (antibody, V domains shown)
VH: QVQLQQPGAELVKPGASVKLSCKASGYTFTNHWMHWVRQRPGQGLEWIGNIDPSDSDTHYNHKFKDKATLIVDKSSSTAYLQLSSLTSEDSAVFYCARSRGGYYDYGEAMDYWGQGTSVTVSS
VL: B2 VL with A8T, V11I, T32V, I42L, H50Q, K56M
modifications: Variable Heavy Chain -- TM-78; Variable Light Chain -- TM-78
B8: TM-64: anti-TMEM106B monoclonal antibody; VH SEQ ID NO: 470, VL SEQ ID NO: 506 (antibody, V domains shown)
VH: QVQLQQPGAELVKPGASVKLSCKASGYTFTSYWMHWVKQRPGHGLEWIGNIDPSDSDTHYNQNFRGKATLTVDKFSTTAYMHLSSLTSEDSAVYYCARSRGGTYDYGEAMDYWGQGTSVTVSS
VL: B2 VL with I42L, Q47R, H50Q, K56M
modifications: Variable Heavy Chain -- TM-64; Variable Light Chain -- TM-64

The molecules below were run against GST-TMEM106B (truncated, comprising amino acids 122-210 of SEQ ID NO:1) (Homo sapiens, UniProt Q9NUM4) (assay: Pre-mix epitope binning of anti-TMEM106B antibodies (Carterra / Lake Pharma)). Settings: competition for binding to truncated GST-TMEM106B (amino acids 122-210).
GST-TMEM106B (truncated, comprising amino acids 122-210 of SEQ ID NO:1), sequence (Q9NUM4 122-210): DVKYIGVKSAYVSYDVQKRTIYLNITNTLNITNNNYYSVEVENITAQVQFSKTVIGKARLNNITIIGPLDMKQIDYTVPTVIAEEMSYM
Type: binding
Set-up: key to epitope bin: Bin 1: competes for binding to the same or overlapping TMEM106B region as the TM1, TM17, TM22, TM26, TM79, and/or TM82 antibodies; Bin 2: competes for binding to the same or overlapping TMEM106B region as the TM3, TM9, TM10, TM11, TM12, TM13, TM18, TM19, TM21, TM24, TM25, TM32, TM35, TM37, TM42, TM45, TM48, TM54, TM59, TM60, TM61, and/or TM76 antibodies; Bin 3: competes for binding to the same or overlapping TMEM106B region as the TM7, TM15, TM83, and/or TM84 antibodies; Bin 4: competes for binding to the same or overlapping TMEM106B region as the TMS, TM28, TM29, TM30, TM63, TM64, TM72, TM78, TM80, TM86, and/or TM88 antibodies; Bin 5: does not bind to a truncated TMEM106B comprising amino acids 122-210 of SEQ ID NO:1
In the case of B1, the epitope bin is reported as “Bin 4”.
With B2 the epitope bin was “Bin 4”.
For B3, the epitope bin was “Bin 4”.
In the case of B4, the epitope bin is reported as “Bin 4”.
In the case of B5, the epitope bin is reported as “Bin 4”.
For B6, the epitope bin was “Bin 4”.
In the case of B7, the epitope bin is reported as “Bin 4”.
In the case of B8, the epitope bin is reported as “Bin 4”.

Same assay, conditions: epitope bin number; pre-mix binning on truncated GST-TMEM106B
In the case of B1, the “Binding Community/Bin” value is reported as 4.
In the case of B2, the “Binding Community/Bin” value is reported as 4.
For B3, the “Binding Community/Bin” value was 4.
B4 was tested, and the “Binding Community/Bin” value was 4.
In the case of B5, the “Binding Community/Bin” value is reported as 4.
In the case of B6, the “Binding Community/Bin” value is reported as 4.
For B7, the “Binding Community/Bin” value was 4.
With B8 the “Binding Community/Bin” value was 4.
